Our source for the signal values is US20030108922A1.

Assay [1] has as its target mouse IgG (mouse). The assay can be described thus: sandwich immunoassay (SAM + primary Ab + mouse IgG + Ab-AP) on an Au-coated LTCC macrochip, sonicated for 2 min; CV of PAPR; antigen concentration not stated.
The target in assay [2] is mouse IgG (mouse). The assay can be described thus: sandwich immunoassay (SAM + primary Ab + mouse IgG + Ab-AP) on an Au-coated silicon wafer macrochip; CV of PAPR; antigen concentration not stated.
The target in assay [3] is mouse IgG (mouse). The assay can be described thus: sandwich immunoassay (SAM + primary Ab + mouse IgG + Ab-AP) on an Au-coated LTCC macrochip, not sonicated; CV of PAPR; antigen concentration not stated.

For “secondary antibody (to mouse IgG) conjugated to alkaline phosphatase”, the signal with mouse IgG (mouse) [1] turned out to be 30 Acm^-2; in the assay with mouse IgG (mouse) [2], 27.7 Acm^-2; with mouse IgG (mouse) [3], 34.6 Acm^-2.
